From article PMC4513130, “Neuronal Calcium Sensor-1 Binds the D2 Dopamine Receptor and G-protein-coupled Receptor Kinase 1 (GRK1) Peptides Using Different Modes of Interactions” (The Journal of Biological Chemistry, 2015)

Columns and labels:
[1] = biological target: GRK1 peptide (N terminus of G-protein-coupled receptor kinase 1, residues 1-25); assay: crystal structure; NCS-1 (1 mM) with 2-fold excess of GRK1 peptide; 0.12 M alcohols, 0.1 M HEPES/MOPS pH 7.5, 30% PEGMME 550 and PEG 20000, 20 °C; 2.30 Å
[2] = biological target: D2 receptor peptide (D2R peptide) (human); assay: crystal structure; NCS-1 (1 mM) with 2-fold excess of D2R peptide; 150 mM Tris-HCl pH 8.0, 8% ethylene glycol, 20% PEG 5000, 20 °C; 2.19 Å
[3] = biological target: D2 receptor peptide (D2R peptide) (human); assay: ITC; 1 mM Ca2+/NCS-1 in the syringe titrated into 100 uM D2R peptide in the cell, 25 °C, 50 mM Tris-HCl, 50 mM NaCl, 5 mM CaCl2, pH 7.5; fitted to a sequential model and to a two-site nonsequential model with stoichiometry fixed at 1:2 NCS-1:peptide

Rattus norvegicus neuronal calcium sensor-1 (NCS-1), full-length, Ca2+-bound, sequence (P62168 whole entry): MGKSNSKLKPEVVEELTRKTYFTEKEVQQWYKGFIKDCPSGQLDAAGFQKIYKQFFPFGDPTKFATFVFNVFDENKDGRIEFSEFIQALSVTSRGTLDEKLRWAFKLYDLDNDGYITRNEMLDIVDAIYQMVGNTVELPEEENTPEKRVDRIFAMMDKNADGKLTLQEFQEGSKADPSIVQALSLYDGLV
GRK1 peptide (N terminus of G-protein-coupled receptor kinase 1, residues 1-25), sequence (Q15835 1-25): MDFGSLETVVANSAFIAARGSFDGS

stoichiometry N [1]: 1
stoichiometry N [2]: 2
Kd, sequential binding model, first value [3]: 43 µM
Kd, sequential binding model, second value [3]: 58 µM
dH [3]: -2.06 kcal/mol
Substance: Rattus norvegicus neuronal calcium sensor-1 (NCS-1), full-length, Ca2+-bound (from UniProt P62168 1-190) (natural protein)
